Results taken from patent US7090843B1, “Recombinant anti-CD30 antibodies and uses thereof” (Seattle Genetics, Inc., priority 2000, dated 2006).
Where two headings read alike, the source gives them in different places.

B1: HeFi-1: anti-CD30 mAb produced by immunizing mice with the L428 Hodgkin's disease cell line (antibody, V domains shown)
VH: EVKLVESGGGLVQPGGSLRLSCATSGFTFSDYYMNWVRQPPGKALEWLGFIRNKANGYTTEFSASVMGRFTISRDDSQSILYLQMNTLRAEDSATYYCARDPPYGNPHYYAMDYWGQGTSVTVSS
VL: DIVLTQSPASLAVSLGQRATISCRASKSVSASGYNYMHWYQQKAGQPPKLLIHLASNLESGVPARFSGSGSGTDFTLNIHPVEEEDASTYYCQHSGELPFTFGSGTKLEIK
B2: AC10: murine anti-CD30 monoclonal antibody prepared against human NK-like cell line YT; hybridoma deposit ATCC PTA-6679 (antibody, listed as Mus musculus, V domains shown)
VH: QIQLQQSGPEVVKPGASVKISCKASGYTFTDYYITWVKQKPGQGLEWIGWIYPGSGNTKYNEKFKGKATLTVDTSSSTAFMQLSSLTSEDTAVYFCANYGNYWFAYWGQGTQVTVSA
VL: DIVLTQSPASLAVSLGQRATISCKASQSVDFDGDSYMNWYQQKPGQPPKVLIYAASNLESGIPARFSGSGSGTDFTLNIHPVEEEDAATYYCQQSNEDPWTFGGGTKLEIK
B3: cAC10: chimeric antibody: AC10 heavy and light chain variable regions with human gamma 1 and kappa constant regions (antibody)
heavy: B2 VH
light: B2 VL
modifications: left off: a dimerising Fc or GST
notes: chimeric antibody: AC10 heavy and light chain variable regions with human gamma 1 and kappa constant regions

Legend:
[1] = test system: HD cell line L428; assay: Chemotherapeutic drugs on L428 cells pre-cultured with or without cross-linked AC10 (3H-thymidine); type: cell-based
Method: L428 cells were cultured for 24 hours in the presence or absence of 0.1 μg/ml anti-CD30 antibody, AC10, crosslinked by the addition of 20 μg/ml goat anti-mouse IgG antibodies. After the 24-hour culture period, the cells were harvested and washed with phosphate buffered saline (PBS). The cells were then plated into 96-well flat-bottom tissue culture plates at 5×10^3 cells/well and mixed with various dilutions of chemotherapeutic drugs. After a 1-hour exposure to the drugs the cells were washed twice, followed by the addition of fresh culture media. The plates were then incubated at 37° C. for 72 hours followed by a 4-hour incubation with 0.5 μCi/well ^3H-thymidine. The inhibition of growth was determined by comparing the amount of ^3H-thymidine incorporated into treated cells to the amount incorporated into untreated control cells.
To evaluate the effect of the anti-CD30 mAb in combination with chemotherapeutic drugs, L428 cells were incubated for 24 hours in either the absence of antibody or the presence of AC10 at 0.1 μg/ml with 20 μg/ml goat anti-mouse IgG to provide crosslinking for the primary antibody. After this incubation the cells were plated into 96-well tissue culture plates at 5×10^3 cells/well in the presence of dilutions of chemotherapeutic drugs including doxorubicin, cisplatin, and etoposide (Table 3). The EC50, concentration of drug needed to inhibit the incorporation of ^3H-thymidine by 50% compared to untreated control cells, was then determined for cells treated with the drugs alone or the combinations of drug and antibody.

[2] = test system: L540; details: co-culture with mAb; cited from earlier work
[3] = test system: L428; details: co-culture with mAb; cited from earlier work
[4] = test system: L540cy Hodgkin's disease xenografts; assay: Disseminated L540cy Hodgkin's disease xenograft; type: in vivo, SCID mice; details: 1 mg/kg/injection i.p. q2d×10 from d1 (FIG. 5A)
Method: (§1) Human tumor xenograft models: Female C.B-17 SCID mice, obtained from Taconic (Germantown, N.Y.) at 4–6 weeks of age, were used for all efficacy studies. To establish xenograft models of Hodgkin's disease, L540cy (HD) cells were harvested from cell culture, washed in ice cold phosphate buffered saline (PBS), resuspended in PBS, and maintained on ice until implantation. For disseminated disease models, mice were injected intravenously through the tail vein with 10^7 L540cy cells. Solid tumor xenografts were established by injecting mice subcutaneously (s.c.) with 2×10^7 L540cy cells. For therapeutic evaluation the indicated treatment doses and schedules were used.
Administration of AC10 and HeFi-1: Disseminated L540cy tumor bearing mice received 10^7 cells through the tail vein on d0 followed by therapy initiated on d1. Treated mice received i.p. injections of either AC10 or HeFi-1 every two days for a total of 10 injections, q2d×10, at 1 mg/kg/injection.

[5] = test system: L540 cells; assay: Co-cultivation of L540 cells with antibodies, isolation of sCD30 from culture supernatant; type: cell-based; details: L540 cells co-cultivated with antibody
Description: At the Fourth Workshop on Leukocyte Differentiation Antigens in Vienna in February 1989, monoclonal antibodies were submitted by three different laboratories and finally characterized as belonging to the CD30 group. […] However, the antibody Ber-H2 also labels a subpopulation of plasma cells (Schwarting et al., 1988, Blood 74:1678–1689) and G. Pallesen (G. Pallesen, 1990, Histopathology 16:409–413) describes, on page 411, that Ber-H2 is cross-reacting with an epitope of an unrelated antigen which is altered by formaldehyde.

[6] = test system: ALCL tumor xenografts; details: Tian et al., 1995; cited from earlier work
[7] = test system: HDLM-2; assay: Proliferation assay (3H-thymidine incorporation), immobilized or cross-linked anti-CD30 mAbs; type: cell-based
Method: (§2) Proliferation assays: CD30 expressing cell lines were cultured in flat-bottom 96-well plates at a density of 50,000 or 5,000 cells/well in growth media (RPMI with 10% fetal bovine serum (FBS) for cell lines L428, KM-H2 and Karpas 299, and RPMI/20% FBS for cell lines HDLM-2 and L540. The cell lines were cultured in the absence or presence of cross-linked soluble anti-CD30 mAbs or immobilized anti-CD30 mAbs, as described below.
(§3) Antibody cross-linking in solution: To cross-link the anti-CD30 antibodies in solution, various dilutions of AC10 or HeFi-1 were titrated into 96-well flat bottom tissue culture plates in the absence or presence of 20 μg/ml polyclonal goat anti-mouse IgG antibodies. Hodgkin's disease cell lines were then added to the plates at either 50,000 or 5,000 cells/well. The plates were incubated at 37° C. for 72 hours and were labeled with ^3H-thymidine, 1 μCi/well, for the final 5 hours.
(§4) Antibody immobilization: Antibody immobilization was obtained by coating wells with antibody in 50 mmol/L Tris buffer (pH 8.5) for 18 hours at 4° C. Prior to the addition of cells, wells were washed twice with PBS to remove unbound mAb. 50,000 or 5,000 cells in a total volume of 200 μl were added to each well. Proliferation was determined by uptake of ^3H-thymidine (0.5 μCi/well) during the final 8 hours of a 72 hour culture period.

[8] = test system: L428; assay: as above; type: cell-based
Method: as §2, §3, §4

[9] = test system: KM-H2; assay: as above; type: cell-based
Method: as §2, §3, §4

[10] = test system: L540; assay: as above; type: cell-based
Method: as §2, §3, §4

[11] = test system: L540cy Hodgkin's disease xenografts; assay: Subcutaneous L540cy Hodgkin's disease xenograft; type: in vivo, SCID mice; details: tumors >150 mm^3 at start, 2 mg/kg twice per week, five injections (FIG. 6)
Method: as §1
For the subcutaneous L540cy model, mice were injected s.c. with 2×10^7 cells and were observed daily for solid tumor formation. When tumors were palpable, the animals were randomly distributed into groups and received either AC10 or HeFi-1 q2d×10 at 2 mg/kg/injection.
To evaluate the efficacy of cAC10 in vivo, SCID mice were implanted subcutaneously with L540cy cells as described above. When the tumors reached an average size of greater than 150 mm^3 the mice were divided into groups that were either untreated or treated with 2 mg/kg cAC 10 twice per week for a total of five injections. The tumors in the untreated mice rapidly grew to an average size of greater than 600 mm^3 (FIG. 6).

[12] = Homo sapiens, L-428, L428, combination of drug and AC10 0.1 μg/ml cross-linked, read-out: EC50 (after incubation with AC10)
[13] = Homo sapiens, L-428, L428, drug alone, read-out: EC50 (drug alone)
[14] = Homo sapiens, L-428, L428, 24 hours with 0.1 μg/ml AC10 cross-linked with 20 μg/ml goat anti-mouse IgG, then 1-hour drug exposure, 72 hours, read-out: EC50, nM with AC10
[15] = Homo sapiens, L-428, L428, no antibody, 1-hour drug exposure, 72 hours, read-out: EC50, nM without AC10
[16] = soluble mAb 0.1 μg/ml cross-linked with 20 μg/ml goat anti-mouse IgG, 5×10^4 cell/well, 72 hours (FIG. 3)
[17] = soluble mAb cross-linked with 20 μg/ml goat anti-mouse IgG, 5×10^3 cell/well, 72 hours (FIG. 4)
[18] = immobilized mAb 10 μg/ml, 5,000 cells/well, 72 hours (FIG. 2)
[19] = immobilized mAb 10 μg/ml, 50,000 cells/well, 72 hours (FIG. 1)

Row | Molecule | EC50 [1, 12] | EC50 [1, 13] | EC50 [1, 14] | EC50 [1, 15] | signs of disease [4] | cell growth (3H-thymidine incorporation) [7, 16] | cell growth (3H-thymidine incorporation) [7, 17] | cell growth (3H-thymidine incorporation) [8, 16] | cell growth (3H-thymidine incorporation) [8, 17] | cell growth (3H-thymidine incorporation) [9, 16] | cell growth (3H-thymidine incorporation) [10, 16] | cell growth (3H-thymidine incorporation) [10, 17] | further results
1 | COc1cccc2c1C(=O)c1c(O)c3c(c(O)c1C2=O)C[C@@](O)(C(=O)CO)C[C@@H]3O[C@H]1C[C@H](N)[C@H](O)[C@H](C)O1 [Doxorubicin] | ~9 nM | ~45 nM | 45 nM | 9 nM | – | – | – | – | – | – | – | – | –
2 | N.N.[Cl][Pt][Cl] [Cisplatin] | – | – | – | – | – | – | – | – | – | – | – | – | EC50 ([1]; L428, combination of drug and AC10 0.1 μg/ml cross-linked, read-out: EC50 (after incubation with AC10)): ~500 nM; EC50 ([1]; L428, drug alone, read-out: EC50 (drug alone)): ~1500 nM; EC50 ([1]; L428, 24 hours with 0.1 μg/ml AC10 cross-linked with 20 μg/ml goat anti-mouse IgG, then 1-hour drug exposure, 72 hours, read-out: EC50, nM with AC10): 1500 nM; EC50 ([1]; L428, no antibody, 1-hour drug exposure, 72 hours, read-out: EC50, nM without AC10): 500 nM
3 | COc1cc([C@@H]2c3cc4c(cc3[C@@H](O[C@@H]3O[C@@H]5CO[C@@H](C)O[C@H]5[C@H](O)[C@H]3O)[C@H]3COC(=O)[C@H]23)OCO4)cc(OC)c1O [Etoposide] | ~600 nM | ~1500 nM | 1500 nM | 600 nM | – | – | – | – | – | – | – | – | –
4 | B1 | – | – | – | – | no signs of disease | growth inhibited | growth inhibited | growth inhibited | growth inhibited | growth inhibited | growth inhibited | growth inhibited | viability of the cell line on co-culture [2]: failed to reveal any direct effect; viability of the cell line on co-culture [3]: failed to reveal any direct effect; release of the sCD30 [5]: weakly enhanced; survival of SCID mice bearing ALCL tumor xenografts [6]: prolonged survival
5 | B2 | – | – | – | – | no signs of disease | growth inhibited | growth inhibited | growth inhibited | growth inhibited | growth inhibited | growth inhibited | growth inhibited | cell growth (3H-thymidine incorporation) [7, 18]: growth inhibition; cell growth (3H-thymidine incorporation) [7, 19]: inhibition of cell growth; cell growth (3H-thymidine incorporation) [8, 18]: growth inhibition; cell growth (3H-thymidine incorporation) [8, 19]: inhibition of cell growth; cell growth (3H-thymidine incorporation) [9, 18]: growth inhibition; cell growth (3H-thymidine incorporation) [9, 19]: inhibition of cell growth; cell growth (3H-thymidine incorporation) ([9]; soluble mAb 0.11 g/ml cross-linked with 20 μg/ml goat anti-mouse IgG, 5×10^3 cell/well, 72 hours (FIG. 4)): growth inhibited; cell growth (3H-thymidine incorporation) [10, 18]: growth inhibition; cell growth (3H-thymidine incorporation) [10, 19]: inhibition of cell growth
6 | B3 | – | – | – | – | – | – | – | – | – | – | – | – | average tumor size [11]: remained about the same size
